Reference: paper PMC10716376, “The assembly of the Mitochondrial Complex I Assembly complex uncovers a redox pathway coordination” (Nature Communications, 2023)

How the values were obtained:
Conditions in all cases: both partners purified
ACAD9_(S191A) = molecular target: T1, ACAD9_(S191A) (human, UniProt Q9H845 38-621, S191A); assay: ITC; 25 °C; ACAD9 at 49 uM in the cell, titrated with ECSIT at 300 uM; 50 mM Tris-HCl pH 7.5, 250 mM NaCl
T1 construct: human ACAD9, residues 38-621, S191A; One FAD per protomer in the cryo-EM structure; source: E. coli C43 (DE3), purified (HisTrap, dialysed in SEC buffer)
T1 sequence (looked up): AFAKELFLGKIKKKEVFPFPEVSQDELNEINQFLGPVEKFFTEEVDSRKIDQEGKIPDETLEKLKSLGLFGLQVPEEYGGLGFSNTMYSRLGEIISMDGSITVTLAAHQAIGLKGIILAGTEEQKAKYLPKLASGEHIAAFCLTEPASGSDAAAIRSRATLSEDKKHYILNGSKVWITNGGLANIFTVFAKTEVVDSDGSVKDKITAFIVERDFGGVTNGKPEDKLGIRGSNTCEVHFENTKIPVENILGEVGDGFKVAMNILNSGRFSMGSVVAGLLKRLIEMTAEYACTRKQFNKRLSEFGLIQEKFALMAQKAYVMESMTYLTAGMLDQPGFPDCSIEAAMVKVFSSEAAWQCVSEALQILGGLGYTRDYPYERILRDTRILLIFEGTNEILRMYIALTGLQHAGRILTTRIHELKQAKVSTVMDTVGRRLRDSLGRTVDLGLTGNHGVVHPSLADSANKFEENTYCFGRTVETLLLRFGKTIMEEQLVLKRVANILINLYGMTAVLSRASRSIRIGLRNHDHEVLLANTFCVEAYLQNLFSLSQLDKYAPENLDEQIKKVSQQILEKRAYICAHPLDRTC

[1] = molecular target: T2, ACAD9WT (mature ACAD9, residues 38-621) (human, UniProt Q9H845 38-621); assay: cryo-EM structure; ACAD9WT-ECSIT_(CTER) reconstituted (molar ratio 1:1.25) and purified by gel filtration; 25 mM HEPES, 300 mM NaCl, 1 mM TCEP, pH 7.5; C2 symmetry imposed
T2 construct: human ACAD9, mature form, residues 38-621; E. coli codon-optimised synthetic gene; Cloned into pET-21d(+); Plasmid details are in Supplementary Data 1; source: E. coli C43 (DE3), purified (HisTrap, dialysed in SEC buffer)
T2 sequence (looked up): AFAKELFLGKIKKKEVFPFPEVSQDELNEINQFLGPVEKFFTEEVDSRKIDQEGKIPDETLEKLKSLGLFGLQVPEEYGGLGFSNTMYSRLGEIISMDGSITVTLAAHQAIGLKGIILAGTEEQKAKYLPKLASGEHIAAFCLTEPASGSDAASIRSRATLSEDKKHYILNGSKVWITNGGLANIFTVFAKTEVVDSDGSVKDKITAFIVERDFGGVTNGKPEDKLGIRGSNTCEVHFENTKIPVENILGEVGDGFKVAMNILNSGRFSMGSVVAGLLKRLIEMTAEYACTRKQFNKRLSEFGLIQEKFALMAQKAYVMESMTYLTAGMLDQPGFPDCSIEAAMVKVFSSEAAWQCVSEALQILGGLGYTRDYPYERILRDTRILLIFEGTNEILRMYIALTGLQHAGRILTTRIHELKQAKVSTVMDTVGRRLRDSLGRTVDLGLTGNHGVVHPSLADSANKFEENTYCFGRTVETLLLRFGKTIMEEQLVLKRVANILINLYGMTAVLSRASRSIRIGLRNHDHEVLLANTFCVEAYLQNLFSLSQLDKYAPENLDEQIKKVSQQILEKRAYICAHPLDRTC

ACAD9_(A184S/SR194TS) = molecular target: T3, ACAD9_(A184S/SR194TS) (human, UniProt Q9H845 38-621, A184S | SR194TS); assay: mass photometry; ACAD9 (or VLCAD) at 20-50 nM in 25 mM HEPES pH 7.5, 250 mM NaCl, or diluted in 4.8 uM ECSIT solution for complex formation
T3 construct: human ACAD9, residues 38-621, A184S and SR194TS combined (mimics the VLCAD gatekeeper loop); source: E. coli C43 (DE3), purified (HisTrap, dialysed in SEC buffer)
T3 sequence (looked up): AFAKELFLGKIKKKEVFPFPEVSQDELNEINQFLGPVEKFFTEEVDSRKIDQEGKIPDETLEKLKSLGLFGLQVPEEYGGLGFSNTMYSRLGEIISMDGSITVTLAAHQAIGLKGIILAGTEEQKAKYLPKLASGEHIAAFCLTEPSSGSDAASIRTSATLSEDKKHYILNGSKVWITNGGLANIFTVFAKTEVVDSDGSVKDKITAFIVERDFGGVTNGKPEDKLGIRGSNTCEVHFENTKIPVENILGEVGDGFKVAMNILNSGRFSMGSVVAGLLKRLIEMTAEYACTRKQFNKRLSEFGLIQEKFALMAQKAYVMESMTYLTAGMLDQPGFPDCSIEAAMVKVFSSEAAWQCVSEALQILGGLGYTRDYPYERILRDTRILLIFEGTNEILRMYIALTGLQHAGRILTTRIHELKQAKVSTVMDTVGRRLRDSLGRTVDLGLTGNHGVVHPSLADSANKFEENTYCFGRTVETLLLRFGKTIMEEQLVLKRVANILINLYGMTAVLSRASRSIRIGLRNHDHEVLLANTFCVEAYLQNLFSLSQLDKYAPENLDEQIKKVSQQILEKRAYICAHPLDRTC

ACAD9_(A184S) = molecular target: T4, ACAD9_(A184S) (human, UniProt Q9H845 38-621, A184S); assay: dynamic light scattering; 278 K, protein at 1-2 mg/ml; complexes reconstituted at molar ratio 1:1.25
T4 construct: human ACAD9, residues 38-621, A184S (mimics the VLCAD gatekeeper loop); source: E. coli C43 (DE3), purified (HisTrap, dialysed in SEC buffer)
T4 sequence (looked up): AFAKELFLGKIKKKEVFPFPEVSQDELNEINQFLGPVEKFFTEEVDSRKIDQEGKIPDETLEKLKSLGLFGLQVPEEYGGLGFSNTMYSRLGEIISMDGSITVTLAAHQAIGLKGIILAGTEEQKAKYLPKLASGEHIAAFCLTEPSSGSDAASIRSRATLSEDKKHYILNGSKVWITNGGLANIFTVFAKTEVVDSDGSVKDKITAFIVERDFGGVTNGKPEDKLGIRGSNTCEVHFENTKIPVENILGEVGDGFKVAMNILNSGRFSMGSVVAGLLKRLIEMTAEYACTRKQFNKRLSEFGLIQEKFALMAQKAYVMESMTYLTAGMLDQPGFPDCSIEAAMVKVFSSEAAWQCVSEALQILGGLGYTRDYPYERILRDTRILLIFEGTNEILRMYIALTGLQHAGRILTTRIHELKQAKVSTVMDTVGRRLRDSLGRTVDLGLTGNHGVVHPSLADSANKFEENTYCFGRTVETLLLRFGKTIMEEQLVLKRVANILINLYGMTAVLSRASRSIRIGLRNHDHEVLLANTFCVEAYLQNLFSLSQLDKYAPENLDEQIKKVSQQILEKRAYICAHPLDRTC

ACAD9_(SR194TS) = molecular target: T5, ACAD9_(SR194TS) (human, UniProt Q9H845 38-621, SR194TS); assay: as above
T5 construct: human ACAD9, residues 38-621, double mutant SR194TS (mimics the VLCAD gatekeeper loop); source: E. coli C43 (DE3), purified (HisTrap, dialysed in SEC buffer)
T5 sequence (looked up): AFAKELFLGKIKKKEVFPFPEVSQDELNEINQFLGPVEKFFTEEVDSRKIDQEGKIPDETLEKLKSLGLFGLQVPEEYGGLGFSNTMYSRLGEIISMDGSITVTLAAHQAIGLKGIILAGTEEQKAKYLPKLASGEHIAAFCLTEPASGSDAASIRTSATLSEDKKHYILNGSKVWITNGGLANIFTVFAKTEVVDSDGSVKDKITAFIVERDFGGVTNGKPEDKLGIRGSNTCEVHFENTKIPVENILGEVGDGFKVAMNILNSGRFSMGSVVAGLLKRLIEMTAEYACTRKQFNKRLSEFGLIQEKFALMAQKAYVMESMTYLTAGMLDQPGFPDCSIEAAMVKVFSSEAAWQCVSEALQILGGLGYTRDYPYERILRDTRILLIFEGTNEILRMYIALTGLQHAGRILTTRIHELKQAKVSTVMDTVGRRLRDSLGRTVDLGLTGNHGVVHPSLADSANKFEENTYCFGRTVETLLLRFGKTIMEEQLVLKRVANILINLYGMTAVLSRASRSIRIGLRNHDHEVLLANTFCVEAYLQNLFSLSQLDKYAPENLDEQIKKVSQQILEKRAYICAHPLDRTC

B1: ECSIT_(CTER) (residues 221-431) (domain or fragment, human, UniProt Q9BQ95 221-431, looked up)
chain: QDPVELAMFGLRHMEPDLSARVTIYQVPLPKDSTGAADPPQPHIVGIQSPDQQAALARHNPARPVFVEGPFSLWLRNKCVYYHILRADLLPPEEREVEETPEEWNLYYPMQLDLEYVRSGWDNYEFDINEVEEGPVFAMCMAGAHDQATMAKWIQGLQETNPTLAQIPVVFRLAGSTRELQTSSAGLEEPPLPEDHQEEDDNLQRQQQGQS
notes: human ECSIT, residues 221-431; E. coli codon-optimised synthetic gene; Only residues 320-334 are modelled in the cryo-EM map; Plasmid details are in Supplementary Data 1; also called C-terminal ECSIT; source: E. coli BL21 Star (DE3), purified (HisTrap, SEC)
In the case of B1, the Kd (ACAD9_(S191A)) is reported as 3.93 µM, the “fold decrease in fold change against ACAD9WT-ECSIT_(CTER)” value (ACAD9_(S191A)) is reported as about 3 fold and the “stoichiometry N” value [1] is reported as 1 ECSIT_(CTER) per ACAD9 protomer. B1: binds (ACAD9_(A184S/SR194TS)); binds (ACAD9_(A184S)); binds (ACAD9_(SR194TS)).
